The data set deals with Spike RBD (SARS-CoV-2, UniProt P0DTC2 SEQ:1-223). The experiment in a line: filter.

B1: 26874-29_4 (SL1111) (ssDNA)
DNA: CCTTGGGATACTATGCGTCCGACCGCTCGGACGGAGAAGG
modifications: Y=Tyr-dU, p=Nap-dC; printed …pYAYGpGYppGAppGpYpGGApGGAGAAGG [Tyr-dU: 9,12,14,18,27; Nap-dC: 11,16,19,20,23,24,26,28,32]
Regarding B1, the Kd turned out to be 0.3 nM.

In general, Kd refers to the free concentration of one partner at which half of the binding sites on the other are occupied at equilibrium, for simple one-to-one binding. Read a low Kd as a tighter complex.

(Values after patent publication US20240218374, “Nucleic Acid Compounds That Bind Coronavirus Proteins” (Somalogic Operating Co., Inc., published 2024).)
